This note sets out measurements from article PMC8782820.

Experiment [1] concerns the target hepcidin-imprinted silk fibroin (SilMA) nanoparticles, bioMIPs (Bombyx mori). Nature of the experiment: other fluorescence titration; 37.5 μg of bioMIPs or non-imprinted SF-NPs per well incubated with hepfitc 3 nM–2.5 μM in PBS 10 mM pH 7.4 with 0.08% Tween-20, read at 30 min; Langmuir fit; apparent.
For experiment [2] the target is unchanged. Put plainly: competitive fluorescence assay; bioMIPs incubated with hepfitc (500 pmol) alone or with one competitor (hepcidin; angiotensin, cytochrome c or human serum albumin 6 nmol); bound hepfitc at 30 min; triplicate.
Experiment [3] shares this target. Nature of the experiment: ITC; hepcidin 28 μM (syringe, 50 μL) titrated into bioMIP or control SF-NPs 2.5 μM (220 μL) in 50 mM PBS pH 7.4, 25 °C, 16 injections of 3 μL; independent site model; triplicate. On the technique in general: ITC needs no label: the signal is the heat of the interaction.
The target is the same in experiment [4]. Nature of the experiment: competitive fluorescence assay; 30 μg/well of bioMIPs with hepcidin-depleted pooled serum (10 μL in 150 μL PBS 10 mM pH 7.4, 0.08% Tween-20), hepfitc 500 or 250 pmol, hepcidin competitor 0.11, 0.34, 0.68, 2.70 μM; displacement from ≥ 120 min of incubation; Hill fit.

pKd: −log10 of the molar value.

In the case of “fluorescent hepcidin (hepfitc) (peptide)”, in experiment [1], the pKd is 5.78 and the imprinting factor (hepfitc bound to the bioMIP with respect to that bound to the NIP) turned out to be 2. The substance also gave a hepfitc bound at 30 min in experiment [2] of 125 pmol.
In experiment [3], “Hepcidin-25 (from UniProt P81172 60-84) (peptide)” showed a pKd of 6.44, a dH of -14 kcal/mol and a stoichiometry N of 2.1. In experiment [4], this substance showed a Ka of 2.41e+06 M⁻¹ and a pKd of 6.39.

Broadly, the pKd is the negative decadic logarithm of the Kd, by convention in mol/L. The stoichiometry N is the number of molecules, sites or subunits per partner or assembly.
